From the supplement of paper PMC10567573

B1: SOAT1 (parent)
chain: PSNGRIDIKQLIAKKIKLTAEAEE
B2: TRAF3IP2 (parent)
chain: KQGSMNFRFIPVLFPNAKKEHVPT

Variants of: B1
Assay: protein stability index of a GFP-peptide fusion (GPS, HEK-293T) (PSI 1-6); higher = more stable
Conditions: c terminus: a fixed tail appended
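Note: lentivirally expressed fusions sorted by FACS into six bins by GFP to DsRed ratio, PSI derived from sequencing read proportions per bin multiplied by bin number.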

Variant | protein stability index
A22Y | 2.91
A22H | 3.42
A22F | 2.35
A22K | 3.15
A22D | 4.05
G4S | 3.57
G4I | 3.18
G4C | 3.33
G4L | 3.48
R5Q | 3.13
R5T | 4
R5I | 3.93
R5N | 3.94
R5V | 3.82
K15W | 2.63
K15Y | 2.69
A13L | 3.13
A13Q | 3.47
A13D | 4.08
A13E | 3.56
A13W | 2.83
A13T | 3.08
A13P | 3.94
A13H | 3.41
K14D | 3.96

Variant | protein stability index
P1L | 3.06
P1R | 3.35
I12C | 3.83
I12D | 4.28
I12F | 3.5
I16F | 2.97
I16S | 3.9
I16L | 3.22
L18R | 3.45
L18Y | 3.13
L18M | 3.27
L18A | 3.62
E21Q | 3.05
L11P | 3.66
L11N | 3.6
L11R | 3.93
I6N | 3.3
I6Q | 3.76
I6Y | 3.51
I6F | 2.83
I6L | 3.18
D7N | 3.33
D7I | 3.08
D7G | 3.02
D7E | 3.4

Variant | protein stability index
D7M | 2.89
D7W | 3.46
I8A | 3.42
I8C | 4.06
I8F | 3.54
I8V | 3.88
I8N | 4.01
I8W | 3.08
E24W | 2.44
E24P | 3.24
E24Q | 2.95
E24M | 2.27
E24G | 2.7
E24V | 2.48
E23K | 3.15
E23C | 2.33
E23W | 2.31
E23Y | 2.22
K9R | 2.74
K9Y | 3.03
K9V | 2.9
K9D | 3.87
K9L | 2.77
A20I | 2.7
A20F | 2.51

Variant | protein stability index
A20P | 3.78
K17C | 3.05
K17Y | 2.84
K17T | 3.5
T19W | 2.21
T19S | 2.9
T19Y | 2.52
S2M | 3.11
S2L | 3.09
S2G | 3.64
S2Y | 2.88
S2F | 2.94
N3V | 3.58
N3Q | 4.09
N3I | 3.87
N3D | 4.38
N3L | 3.46
Q10M | 2.67
Q10C | 3.19
Q10E | 3.73
Q10N | 3.21
Q10S | 3.1

Variants of: B2
Assay: as above
Conditions: c terminus: a fixed tail appended

Variant | protein stability index
F7E | 3.67
F7W | 2.23
F7P | 3.31
F7C | 2.38
F7I | 2.12
F7H | 2.87
F7D | 2.91
F7G | 3.01
F7K | 3.06
F7V | 2.13
F7A | 2.95
F7Y | 2.59
F7S | 3.12
F7Q | 3.19
F7T | 2.73
F7M | 2.32
F7L | 1.91
F7N | 2.92
F7R | 2.69
V12Y | 1.97
V12G | 1.96
V12F | 2.14
V12W | 2.06
V12C | 2.35

Variant | protein stability index
V12T | 1.86
V12S | 2.35
V12I | 2.14
V12N | 2.84
V12Q | 2.4
V12K | 2.39
V12L | 2.12
V12D | 2.17
V12P | 2.33
V12M | 1.86
V12H | 2.39
V12A | 2.31
V12E | 2.76
V12R | 2.49
Q2P | 1.93
Q2V | 1.85
Q2D | 1.8
Q2L | 2.23
Q2A | 2.47
Q2C | 1.8
Q2K | 1.91
Q2M | 1.48
Q2N | 1.91
Q2S | 1.82

Variant | protein stability index
Q2R | 1.47
Q2Y | 2.08
Q2G | 2.66
Q2W | 2.27
Q2E | 2.13
Q2T | 1.84
Q2F | 1.87
Q2I | 2.82
Q2H | 1.63
M5T | 2.5
M5Y | 1.87
M5E | 2.88
M5P | 2.1
M5W | 1.8
M5F | 1.52
M5R | 2.2
M5C | 1.98
M5A | 2.21
M5D | 3.35
M5S | 2.04
M5N | 2.44
M5H | 2.15
